The record followed here is the supplement of paper PMC9112550, “Optimization of the antimicrobial peptide Bac7 by deep mutational scanning” (BMC Biology, 2022).

In this series the test system is Escherichia coli TOP10. Kind of series: shrunken log2 fold change of peptide-encoding DNA abundance (4.5 h post-induction vs induction); higher = less antimicrobial activity (less host growth inhibition). The settings on record: time post-induction: 4.5 h; library: site-saturation at positions 5, 18, 19, 20.
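Note: peptides expressed intracellularly from a pBAD plasmid library in pooled LB shake-flask culture, induced with 0.3% L-arabinose, DNA abundance read by NGS, three biological replicates, DESeq2 with apeglm shrinkage.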

With RRIRKRPPRLPRPRPRPCRVPRP, the “shrunken log2 fold change” value is 0.0931.

As to RRIRMRPPRLPRPRPRPLNTPRP, the “shrunken log2 fold change” value was found to be 0.163.

RRIRARPPRLPRPRPRPTYYPRP: the “shrunken log2 fold change” value was -0.119.

RRIRQRPPRLPRPRPRPACKPRP: the “shrunken log2 fold change” value was -0.0465.

Regarding RRIRERPPRLPRPRPRPVQVPRP, the “shrunken log2 fold change” value was -0.227.

Take RRIRRRPPRLPRPRPRPFREPRP: the “shrunken log2 fold change” value turned out to be 0.163.

RRIRYRPPRLPRPRPRPEYAPRP: the “shrunken log2 fold change” value is -0.0128.

In the case of RRIRIRPPRLPRPRPRPRGLPRP, the “shrunken log2 fold change” value was -0.272.

Turning to RRIRVRPPRLPRPRPRPTIRPRP, the “shrunken log2 fold change” value worked out at 0.0315.

RRIRYRPPRLPRPRPRPGYFPRP: the “shrunken log2 fold change” value is -0.624.

Regarding RRIRNRPPRLPRPRPRPWCTPRP, the “shrunken log2 fold change” value was -0.205.

Turning to RRIRQRPPRLPRPRPRPNWPPRP, the “shrunken log2 fold change” value was found to be 0.192.

Turning to RRIRCRPPRLPRPRPRPQAPPRP, the “shrunken log2 fold change” value is 0.211.

Regarding RRIRRRPPRLPRPRPRPNMCPRP, the “shrunken log2 fold change” value was -0.368.

With RRIRNRPPRLPRPRPRPSQMPRP, the “shrunken log2 fold change” value was -0.232.

Consider RRIRIRPPRLPRPRPRPTYVPRP, for which the “shrunken log2 fold change” value is -0.0344.

For RRIRQRPPRLPRPRPRPPHWPRP, the “shrunken log2 fold change” value stood at 0.641.

With RRIRSRPPRLPRPRPRPFHHPRP, the “shrunken log2 fold change” value is -0.804.

RRIRTRPPRLPRPRPRPVTHPRP: the “shrunken log2 fold change” value was -0.0683.

RRIRIRPPRLPRPRPRPNNRPRP: the “shrunken log2 fold change” value was -0.557.

Consider RRIRARPPRLPRPRPRPCQPPRP, for which the “shrunken log2 fold change” value is -0.0379.

As for RRIRKRPPRLPRPRPRPKETPRP, the “shrunken log2 fold change” value turned out to be 0.35.

For RRIRLRPPRLPRPRPRPLDSPRP, the “shrunken log2 fold change” value is 0.0522.

Turning to RRIRERPPRLPRPRPRPCCIPRP, the “shrunken log2 fold change” value is 0.0508.

With RRIRDRPPRLPRPRPRPWNMPRP, the “shrunken log2 fold change” value was -0.508.

Consider RRIRTRPPRLPRPRPRPLQYPRP, for which the “shrunken log2 fold change” value was -0.0374.

Turning to RRIRYRPPRLPRPRPRPWMAPRP, the “shrunken log2 fold change” value was -0.288.

As for RRIRKRPPRLPRPRPRPWPHPRP, the “shrunken log2 fold change” value was found to be 0.298.

For the sequence RRIRARPPRLPRPRPRPCKAPRP, the “shrunken log2 fold change” value came to 0.125.

With RRIRLRPPRLPRPRPRPTARPRP, the “shrunken log2 fold change” value was determined as 1.13.

With RRIRYRPPRLPRPRPRPFRWPRP, the “shrunken log2 fold change” value was -0.14.

As to RRIRDRPPRLPRPRPRPLVIPRP, the “shrunken log2 fold change” value is -0.0438.

RRIRLRPPRLPRPRPRPKATPRP: the “shrunken log2 fold change” value is -0.116.

With RRIRMRPPRLPRPRPRPMKGPRP, the “shrunken log2 fold change” value worked out at 0.235.

For the sequence RRIRNRPPRLPRPRPRPEVIPRP, the “shrunken log2 fold change” value was 0.00635.

Consider RRIRLRPPRLPRPRPRPQCDPRP, for which the “shrunken log2 fold change” value was -0.118.

RRIRSRPPRLPRPRPRPHNPPRP: the “shrunken log2 fold change” value was -0.531.

On to RRIRNRPPRLPRPRPRPDTYPRP, for which the “shrunken log2 fold change” value is -0.0291.

As for RRIRDRPPRLPRPRPRPHSFPRP, the “shrunken log2 fold change” value amounted to 0.0961.

RRIRWRPPRLPRPRPRPHGCPRP: the “shrunken log2 fold change” value was 0.0126.

With RRIRGRPPRLPRPRPRPHHNPRP, the “shrunken log2 fold change” value is -0.372.

Consider RRIRMRPPRLPRPRPRPYAIPRP, for which the “shrunken log2 fold change” value was -0.0168.

As for RRIRQRPPRLPRPRPRPNNRPRP, the “shrunken log2 fold change” value is -0.686.

Regarding RRIRERPPRLPRPRPRPAAEPRP, the “shrunken log2 fold change” value is 0.0581.

As for RRIRMRPPRLPRPRPRPELYPRP, the “shrunken log2 fold change” value came to 0.0658.

Turning to RRIRNRPPRLPRPRPRPTSCPRP, the “shrunken log2 fold change” value is -0.173.

Turning to RRIRLRPPRLPRPRPRPNINPRP, the “shrunken log2 fold change” value was -0.686.

Consider RRIRLRPPRLPRPRPRPKIHPRP, for which the “shrunken log2 fold change” value was -0.312.

Consider RRIRERPPRLPRPRPRPSTTPRP, for which the “shrunken log2 fold change” value is -0.285.

As for RRIRKRPPRLPRPRPRPQVTPRP, the “shrunken log2 fold change” value is -0.0535.

Take RRIRNRPPRLPRPRPRPTRDPRP: the “shrunken log2 fold change” value stood at 0.386.

Regarding RRIRQRPPRLPRPRPRPNDSPRP, the “shrunken log2 fold change” value is -0.449.

As for RRIRTRPPRLPRPRPRPKYVPRP, the “shrunken log2 fold change” value is 0.0339.

RRIRPRPPRLPRPRPRPMHNPRP: the “shrunken log2 fold change” value is -0.202.

As to RRIRARPPRLPRPRPRPDARPRP, the “shrunken log2 fold change” value came out at 0.355.

As for RRIRVRPPRLPRPRPRPWNTPRP, the “shrunken log2 fold change” value is -0.878.

Consider RRIRMRPPRLPRPRPRPGELPRP, for which the “shrunken log2 fold change” value is -0.0122.

Consider RRIRFRPPRLPRPRPRPPMNPRP, for which the “shrunken log2 fold change” value was -0.0762.

Regarding RRIRGRPPRLPRPRPRPPQTPRP, the “shrunken log2 fold change” value is 1.31.

Regarding RRIRNRPPRLPRPRPRPPDHPRP, the “shrunken log2 fold change” value worked out at 0.0887.

In the case of RRIRCRPPRLPRPRPRPCTPPRP, the “shrunken log2 fold change” value was -0.778.

As to RRIRLRPPRLPRPRPRPNALPRP, the “shrunken log2 fold change” value was -0.0646.

RRIRWRPPRLPRPRPRPKNAPRP: the “shrunken log2 fold change” value is 0.202.

As for RRIRFRPPRLPRPRPRPWQLPRP, the “shrunken log2 fold change” value is -0.234.

Turning to RRIRGRPPRLPRPRPRPKCVPRP, the “shrunken log2 fold change” value was found to be 0.505.

Regarding RRIRARPPRLPRPRPRPFSHPRP, the “shrunken log2 fold change” value was -0.124.

In the case of RRIRWRPPRLPRPRPRPDHRPRP, the “shrunken log2 fold change” value was -0.0843.

With RRIRKRPPRLPRPRPRPSMKPRP, the “shrunken log2 fold change” value was -0.212.

As to RRIRPRPPRLPRPRPRPQRKPRP, the “shrunken log2 fold change” value amounted to 0.113.

For the sequence RRIRYRPPRLPRPRPRPRQDPRP, the “shrunken log2 fold change” value is -0.216.

In the case of RRIRCRPPRLPRPRPRPHVRPRP, the “shrunken log2 fold change” value was -0.4.

Regarding RRIRVRPPRLPRPRPRPMLSPRP, the “shrunken log2 fold change” value is -0.0455.

Consider RRIRTRPPRLPRPRPRPAASPRP, for which the “shrunken log2 fold change” value is 0.169.

Turning to RRIRQRPPRLPRPRPRPPWFPRP, the “shrunken log2 fold change” value is -0.018.

For RRIRIRPPRLPRPRPRPSACPRP, the “shrunken log2 fold change” value is -0.561.

RRIRFRPPRLPRPRPRPIATPRP: the “shrunken log2 fold change” value is -0.0109.

For the sequence RRIRFRPPRLPRPRPRPRDKPRP, the “shrunken log2 fold change” value is -0.102.

Regarding RRIRARPPRLPRPRPRPKDAPRP, the “shrunken log2 fold change” value turned out to be 0.347.

For RRIRNRPPRLPRPRPRPYHRPRP, the “shrunken log2 fold change” value was -0.121.

Take RRIRRRPPRLPRPRPRPQWGPRP: the “shrunken log2 fold change” value turned out to be 0.323.

In the case of RRIRHRPPRLPRPRPRPNNAPRP, the “shrunken log2 fold change” value is -0.11.

With RRIRMRPPRLPRPRPRPTHCPRP, the “shrunken log2 fold change” value amounted to 0.34.

Consider RRIRCRPPRLPRPRPRPMLLPRP, for which the “shrunken log2 fold change” value stood at 0.00507.

As for RRIRERPPRLPRPRPRPEESPRP, the “shrunken log2 fold change” value came to 0.148.

As for RRIRSRPPRLPRPRPRPLYYPRP, the “shrunken log2 fold change” value is -0.547.

As for RRIRERPPRLPRPRPRPAWDPRP, the “shrunken log2 fold change” value was determined as 0.0257.

Take RRIRNRPPRLPRPRPRPTIRPRP: the “shrunken log2 fold change” value was -0.0347.

As for RRIRSRPPRLPRPRPRPWCRPRP, the “shrunken log2 fold change” value was -0.398.

For the sequence RRIRARPPRLPRPRPRPHCHPRP, the “shrunken log2 fold change” value is -0.195.

On to RRIRYRPPRLPRPRPRPRMQPRP, for which the “shrunken log2 fold change” value is -0.673.

Take RRIRRRPPRLPRPRPRPDFNPRP: the “shrunken log2 fold change” value is -0.155.

For the sequence RRIRERPPRLPRPRPRPYCAPRP, the “shrunken log2 fold change” value was -0.533.

For the sequence RRIRKRPPRLPRPRPRPDIAPRP, the “shrunken log2 fold change” value stood at 1.

RRIRKRPPRLPRPRPRPCSFPRP: the “shrunken log2 fold change” value was -0.397.

Regarding RRIRFRPPRLPRPRPRPKGVPRP, the “shrunken log2 fold change” value turned out to be 0.0142.

Turning to RRIRSRPPRLPRPRPRPEIGPRP, the “shrunken log2 fold change” value was 0.291.

In the case of RRIRVRPPRLPRPRPRPMCMPRP, the “shrunken log2 fold change” value was 0.0119.

In the case of RRIRHRPPRLPRPRPRPCYYPRP, the “shrunken log2 fold change” value is -0.258.

As to RRIRNRPPRLPRPRPRPKFHPRP, the “shrunken log2 fold change” value is -0.078.

Take RRIRQRPPRLPRPRPRPPVMPRP: the “shrunken log2 fold change” value was -0.285.

As for RRIRIRPPRLPRPRPRPHTGPRP, the “shrunken log2 fold change” value is -0.356.

Turning to RRIRERPPRLPRPRPRPLWSPRP, the “shrunken log2 fold change” value is -0.125.

In the case of RRIRIRPPRLPRPRPRPMYAPRP, the “shrunken log2 fold change” value was -0.191.

Turning to RRIRCRPPRLPRPRPRPRFNPRP, the “shrunken log2 fold change” value was -0.288.

With RRIRERPPRLPRPRPRPGSHPRP, the “shrunken log2 fold change” value was -0.152.

Take RRIRRRPPRLPRPRPRPDSYPRP: the “shrunken log2 fold change” value was -0.117.

Regarding RRIRERPPRLPRPRPRPTFQPRP, the “shrunken log2 fold change” value is -0.103.

As to RRIRWRPPRLPRPRPRPSTHPRP, the “shrunken log2 fold change” value came to 0.667.

For RRIRFRPPRLPRPRPRPQIGPRP, the “shrunken log2 fold change” value is -0.128.

As for RRIRVRPPRLPRPRPRPMQHPRP, the “shrunken log2 fold change” value was 0.0443.

In the case of RRIRWRPPRLPRPRPRPHFFPRP, the “shrunken log2 fold change” value was -0.0221.

Regarding RRIRCRPPRLPRPRPRPQFFPRP, the “shrunken log2 fold change” value is -0.433.

For the sequence RRIRCRPPRLPRPRPRPPRWPRP, the “shrunken log2 fold change” value stood at 1.16.

For RRIRHRPPRLPRPRPRPFGVPRP, the “shrunken log2 fold change” value is -0.326.

For the sequence RRIRCRPPRLPRPRPRPSNIPRP, the “shrunken log2 fold change” value was -0.319.

For RRIRRRPPRLPRPRPRPASTPRP, the “shrunken log2 fold change” value was -0.0241.

RRIRFRPPRLPRPRPRPTVDPRP: the “shrunken log2 fold change” value was -0.175.

In the case of RRIRPRPPRLPRPRPRPCNKPRP, the “shrunken log2 fold change” value is -0.102.

For RRIRARPPRLPRPRPRPNNQPRP, the “shrunken log2 fold change” value was -0.309.

Regarding RRIRSRPPRLPRPRPRPKASPRP, the “shrunken log2 fold change” value was -0.0199.

Consider RRIRTRPPRLPRPRPRPLWPPRP, for which the “shrunken log2 fold change” value worked out at 0.216.

As to RRIRPRPPRLPRPRPRPWGLPRP, the “shrunken log2 fold change” value stood at 0.253.

Take RRIRPRPPRLPRPRPRPGRTPRP: the “shrunken log2 fold change” value turned out to be 0.153.

Take RRIRCRPPRLPRPRPRPIWDPRP: the “shrunken log2 fold change” value was found to be 0.166.

RRIRTRPPRLPRPRPRPNHLPRP: the “shrunken log2 fold change” value is -0.15.
